The source of these data is US20240352452A1.

Holding throughout (assay): CasPlay immunoprecipitation of the virome-wide library (245,002 barcodes), z-score of gRNA barcodes
The target of assay [1] is dCas9-FLAG peptide fusion (CasPlay library member, C-terminal 6His tag) (Streptococcus pyogenes) (UniProt Q99ZW2).
Assay [2] has as its target dCas9-HA epitope tag control peptide (CasPlay virome library) (Streptococcus pyogenes) (UniProt Q99ZW2).
Assay [3] has as its target dCas9-myc epitope tag control peptide (CasPlay virome library) (Streptococcus pyogenes) (UniProt Q99ZW2).

As to anti-FLAG M2 antibody, the rank of z-score among all peptides of the library in assay [1] was under 0.2%.
As for anti-HA antibody (Cell Signaling C29F4), the rank of z-score among all peptides of the library in assay [2] is under 0.2%.
Substance anti-myc antibody (Abcam ab9106) gave a rank of z-score among all peptides of the library in assay [3] of under 0.2%.
